Data: the nanobody polyreactivity screen of Harvey et al. (2022)

Test: yeast display, Sf9 membrane polyspecificity reagent, FACS + sequencing; frameworks hold sequencing errors
Procedure, shortened: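 In a synthetic yeast display library (Saccharomyces cerevisiae BJ5465), nanobody expression was induced with galactose for 36–48 hours. FACS gates were set low and high (top ~1%) using anti-HA fluorescence for expression and streptavidin fluorescence for binding of the Sf9 membrane reagent. Each polyreactivity label is drawn from the gate of origin.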

| Sequence | polyreactivity (PSR sort gate) |
| --- | --- |
| QVQLVESGGGLVQAGGSLRLSCAASGYIYPPYAMRWYRQAPGKERELVATITRIGGSTYYADSVKGRLTMSRDNAKNTVDLQMNSLKPEDTAVYYCAARRDCGPYLSPENPAPMDYWGQGTQVTVSS | low polyreactivity |
| QVQLVESGGGLVQAGGSLRLSCAASGITFPVYAMGWYRQAPGKERELVATITSSGGRTYYADSVKGRFTISRDNAKNTVYLQMNSLKPEDTAVYYCAARPPYIRTLYYWGQGTQVTVSS | high polyreactivity |
| QVQLVESGGGLVQAGGSLRLSCAASGLIFYGNAMGWYREAPGKERELVAAISRRGGRTYYADSVKGRFTISRDNAKKSVYLQMHSLKPEDTAVYYCAAGVPKNGQAGYDYWGQGTQVTVSS | high polyreactivity |
| QVQLVESGGGLVQAGGSLRLSCAASGSTFDIYAMGWYRQAPGKERELVAAITFSGGSTYYADSVKGRFTISRDNAKNTVYLQMNSLKPEDTAVDYCAARNDYYKTFSGYDYWGQGTQVTVSS | low polyreactivity |
| QVQIVESGGGLVQAGGSLRLSCAASGYIFYPYTMGWYRQAPVKERQLVAAITWSGSTYYADSVKGRFTISRDNAKNTVYLQMNSLKPEDTAVYYCARESDWWREFPYDYWGHGTQVTVSS | low polyreactivity |
| QVQLVESGGGLVQAGGSLRLICAASGYTFPDYAMGWYRPAPGTERELVAAIRSGGGTNYADSVKGRFTISRDNAKNSVYLQMNSMKPEDTAVFYCAKEWAGGLYDYWGQGTQVTVSS | low polyreactivity |
| QVQLVESGGGLVQAGGSLRLSCAASGRTFKSNAMRWYRQAPGKERELVATISRGGGSTYYADSVKGRFTISRDNAKNTVYLQMNSLKPEDTAVYYCAIGSNSYLRYHYTYPYDYWGQGTQVTVSS | high polyreactivity |
| QVQLVESGGGLVQAGGSLRLSCAASGIIFYGYAMGWYRQAPGKERELVAAIDSGVSTNYADSVKGRFTISRDNAKNTVYLQMNSLKPEDTAVYYCAVQPWTRDNGYDYWGQGTQVTVSS | low polyreactivity |
| QVQLLESGGGLVQPGGSLRLSCAASGSIFDGYAMVWYRQAPGKERELVAAISSSGGSTYYADSVKGRYTISRDTAKNTVYLQMNSLQREDSAVYYCAARFPWRGGVKYSYYFQHDYWGQGTQVTVSS | high polyreactivity |
| QVQLVESGGGLVQAGGSLRLSCAASGSIFSYYAMGWSRQAPGKERELVAAIRRGGSTNYADSVKGRFTISRDNAKNTVYLQMNSLKPEDTAVYYCAASLGWRPSFSYYWGQGTQVTVSS | high polyreactivity |
| QVQLVESGGGLVQAGGSLRLSCDASGIIFFIYTMGWYRQAPGKERELVAVITRGGRTKYADSVKGRLTISRDNAKNTVFLQMNRLNPEDNAVYYCAAKGSRSYYWGQGTHVTVSS | low polyreactivity |
| QVQHVESGGGLVQAGGSLRLSCAASGSTFAVYTMGWYRQAPGKERELSTSYADSVKGRFTISRDNAKNTVYLQMNSLKPEDTAVYYCNRDFYEFDSNSYRFDYWGQGTQVTVSS | low polyreactivity |
| QVQLVESGGGLVQAGGSLRLSCAASGRIFVIYAMGWYRQAPGKERELVAVISSDGSTYYADSVKGRFTISRDNAKNTVYLQMNSLKPEDTAVYYCAADRIGRYRPYIGWVVRSYYWGQGTQVTVSS | low polyreactivity |
| QVQLVESGGGLVQAGGSLRLSCAASGSTFSLYAMGWYRQATGKERELVASIRGRGGSTNYADSVKGRFTISRDNAKNTVYLQMNSLKPEDTAVYYCAAAVGSVRYDYWGQGTQVTVSS | high polyreactivity |
| QVQLVESGGGLVQAGGSLRLSCAASGSTFDTNAMGWYRQAPGKERELVATITSIGGSTYADSVKGRFTISRDNAKNTVYLQMNSLKPEDTAVYYCATDYVEIDYDYDYWGQGTQVTLSS | low polyreactivity |
| QVQLVESGGGLVQAGGSLRLSCAASGRTFSSYTMGWYRQAPGKERELVASITNNGGSTYYADSVKGRFTISRDNEKNTVYLQMNSLKPEDTAGYYCNANSRVGLQDKKPRDYDGYDSWGQGTQVTVSS | low polyreactivity |
| QVQLQVSGGGLVQAGGSLRLNSAASGAIFLTSEMGWYRQAPGKERELVAAIATGTSTNYADSVKGLFTISRDNAKNTVYLQMNSLKPEDTAVYYCATYHYWGQGTQVTVSS | low polyreactivity |
| QVQLVESGGGLVQAGGSLRLSCAASGSIFSYYAMGWYRQAPGKEREFVAAITKSGGSTYYADSVKGRFTISRDNAKNTVYLQMNSLKPEDTAVYYCAADEGGFWWTYPYDSWGQGTQVTVSS | low polyreactivity |
| QVQLVESGGGLVQAGGSLRLSCAASGSTFSDNAMGWYRQAPGKERELVAGITGGGGTYYADSVKGRFTISRDNAKNTVYLQMNSLKPEDTAVYYCAADTWGTPTPFVHYPEFEHWGQGTQVTVSS | low polyreactivity |
| QVQLVESGGGLVQAGGSLRLSCAASGRTFWQYAMGWYRQAPGKERELVAAIRYSGGSTYYADSVKGRFTISRDNAKNTVYLQMNSLKPEDTAVYYCAKRLKPGFYYWGQGTQVTVSS | high polyreactivity |
| QDQLVESGGGLVQAGGSLRLSCAASGRIFPYYAMGWYRQAPGTERELVAAINSGGSTYYADSVKGRFPISRDNAKNTVYLQMNSLKPEDTAVNYCNADVLYEDGFFWDDYWGQGTQVTVSS | low polyreactivity |
| QVQLVESGGGLVQAGGSLRLSCAASGRTFTSNAMGWYRQAPGKEREFVAAITRSTGSTNYADSVKGRFTISRDNAKNTVYLQMNSLKPEDTAVYYCNAYLYYKGRYSRQYYYWGQGTQVTVSS | high polyreactivity |

| Sequence | polyreactivity (PSR sort gate) |
| --- | --- |
| QVQLVESGGGVVQAGGSLRLSCAASGFTPGNVMGGYRQAPGKERELVAAISWTGDSTYYAASVKGRFTISRDNAKNTVYLQMNSLKPEDTAVYYCAADGVPGRALDYEYWGQGTQVTVSS | high polyreactivity |
| QVQLVESGGGLVQAGGSLRLSCAASGSILTWYPMGWYRQAPRKERELVAAITRGGSTYADSVKGRFTISRDNAKNTVYLQMNILKPEDTAVYYCKAVYGVYVFNYWGQGTQVSVSS | low polyreactivity |
| QVQLVESGGGLVQAGGSLRLSCAASGRTFNAYAMGWYRQAPGKERELVAAISSGGSTYYADSVKGRFTISRDNAKYTVYLQMNSLKPEDTAVYYCNKVYGWRQFDYWGQGTQVTVSS | high polyreactivity |
| QVQLVESGGGLVQAGGSLRLSCAASGFIFAYYAMGWYRQAPGKETELVAAITWSGGRTYYADSVKGRFTISRDNSKNTVYLQMNSLKPEDTAVYYCNAVRPSVDYGYWGQGTQVTVSS | high polyreactivity |
| QVQLVESGGGLVQAGGSLRLSCAASGRIFIPYALGWYRQAPGKERELVAAISYRGGSTYYADSVKGRFTISRDNAKNTVYLQMNSLKPEDTAVYYCANYDYWGQGTQVTVSS | high polyreactivity |
| QVQLVESGGGLVQAGGSLRLSCAASGSIFKWYTMGWYRQAPGKERELVAAITWGGGSTYYADSVKGRFTISRDNAKNTVYLQMNSLKPEDTAVYYCNAEYVVADYGYYTIEFDYWGQGTQVTVSS | low polyreactivity |
| QVQLVESGGGLVQAGGSLRLSCDASGSIFSHYAMGWYRQAPGKERELVATITWRGGSNTNYADSVKGRFTISRDNAKNTVYLQMNSLKPEDTAVYYCAADGDGYYYWGQGTQVTVSS | low polyreactivity |
| QVQLVESGGGLVQAGGSLRLSRAASGGSLRLYAMRWYRQAHGKERELVSAINDRSGSTYYADSVKGRFTISRDNAKNTVYLKLNRLKPEDTAVYYCYAYGTPPGSDGQYDYWGQGTQVTVSS | high polyreactivity |
| QVQHVESGGGLVQAGGGLRISCAASGSIFHVNAMGWSRLAPGKERELVAGISDGGSTYYADSVKGRFTFSRDTAKHTVYLQLNSLKPEDTAVYYSGAECEQWYSYVLSYDWEYDYWGQGTQVTVSS | low polyreactivity |
| QVQLVESGGGLVQAGGSLRLSCAASGRTFTYYAMGWYRQAPGKEREFVASISLSGGRTYYADSVKGRFTISRDNAKNTVYLQMNSLKPEDTAVYYCNAYYPRVHRSDYWGQGTQVTVSS | low polyreactivity |
| QVQLVESGGGLVQAGGSHRLSCAASGSNAMGWYRQAHGKERELVAVITGGGSTHYADSVKGRYTISRDNAKNTVYLLMNSLKAEVTAVYYCAAVYWHSRGKFADIAVDYWGQGTQVTVSS | low polyreactivity |
| QVQLVESGGGLVQAGGSLRLSCAASGRSFYFNAMGWYRQAPGKEWELVAVINSSGSTDYADSVKGRFTISRDNAKNTVYLQMNSLKPEDTAVYYCAAEVTPSGYGYWGQGTQVTVSS | low polyreactivity |
| QVQLVESGGGLVQAGGSLRLSCAASGSTSDTNVMGWYRQPPAKERELVAAISNDDDRTYYADSVKGRFTSSRDNAKNTVYLQMNSVKPEDTAVYYCATADDYPGDDYLEGGYWGQGTQVTVSS | low polyreactivity |
| QVQLVESGGGLVQAGGSLRLSCASSGRIFYYNTMGWYRQAPGKERELVAAINWSGTSTYYADSVKGRFTISRDNAKNTVYLQMNSLKPEDTAVYYCAAYYRYRVTYDYYYWGQGTQVTVSS | high polyreactivity |
| QVQLVESGGGLVQAGGSLRLSCAASGITFPLYAMGWYRQAPGKERELVAAISRRGGRTYADSVKGRFTISRDNAKNTVYLQMNSLKPEDTAVYYCAAKGYSYSRDFYSWGQGTQVTVSS | high polyreactivity |
| QVQLVESGGGLVQAGGSLRLSCAASGSIFGRNTMGWYRQAPGKERELVAAISSSGGSTRYADSVKGRFTISRDNAKITVYLQMNSLKQEDTAVYYCNDRPRTIYVNRKYDYWGQCTQVTVSS | high polyreactivity |
| QVQLVESGGGLVQAGGSLRLSCAASGITFRRYAMGWYRPAPGKERELVAVISVSGGRTHYADSVKGRFTISRDNAKNTVYLQMNSLKPEDTAVYYCAADFLRYPLGYWGQGTQVTVSS | high polyreactivity |
| QDQLVESGGGLVQAGGSLRLSCAASGRIFAGYAMGWYRQAPGKERELVASIRSSGSTYYADSVKGRFTISRDNAKNTVYLQMNSLKPEDTAVYYCAARSGYFRSRFDYWGQCTQVTVSS | high polyreactivity |
| QVQLVESAGGLVQAGGSLRLICAASGSIFVKYAMGWYRQATGKERELVAAISRSGGSTYYADSVKGRFTISRDNAKNTVYLQMTSLKPEDTAVYYCAADGFRGDMYYWGQGTQVTVSS | low polyreactivity |
| QVQLVESGGGLVQAGGSLRLSCAASGSIFPYNAMGWYRQERGNERELVAAISISGGSTYYADSVKGRFTISRDNAKNTVYFQMNSLKPEDTAVYYCAARQTLSSAFDYWGQGTQVTVSS | low polyreactivity |
| QVQLVESGGGLVQAGGSLRLSCAASGRTFYGYAMGWYRQAPGKERELVAAISRRGGSTNYADSVKGRFTISRDNAQTTVYLQMNSLKPEDTAVYYCNKVVPHKPPTMDYWGQGTQVTVSS | high polyreactivity |
